# In patent publication US20040229298A1:
# “And” between values parts separate entries of the source, which are not always exact repeats. Identical values can stand only once.
# Legend:
# [1] = molecular target: HPV16 E6 PDZ ligand peptide (biotinylated C-terminal peptide of the E6 protein of HPV 16) (human papillomavirus 16) (UniProt P03126); assay: G assay ELISA, immobilised GST-PDZ, 10 uM biotinylated peptide
# [2] = molecular target: HPV16 E6 PDZ ligand peptide (biotinylated C-terminal peptide of the E6 protein of HPV 16) (human papillomavirus 16) (UniProt P03126); assay: G assay ELISA, signal over GST-only well
# [3] = molecular target: GST-VARTUL PDZ domain (number not stated) (human) (UniProt Q14160); assay: G assay ELISA, E6 PL peptide titrated on constant GST-PDZ
# GST-VARTUL PDZ domain (number not stated) (human), sequence (Q14160 other isoform, or with tags, fused parts or gaps limits assumed): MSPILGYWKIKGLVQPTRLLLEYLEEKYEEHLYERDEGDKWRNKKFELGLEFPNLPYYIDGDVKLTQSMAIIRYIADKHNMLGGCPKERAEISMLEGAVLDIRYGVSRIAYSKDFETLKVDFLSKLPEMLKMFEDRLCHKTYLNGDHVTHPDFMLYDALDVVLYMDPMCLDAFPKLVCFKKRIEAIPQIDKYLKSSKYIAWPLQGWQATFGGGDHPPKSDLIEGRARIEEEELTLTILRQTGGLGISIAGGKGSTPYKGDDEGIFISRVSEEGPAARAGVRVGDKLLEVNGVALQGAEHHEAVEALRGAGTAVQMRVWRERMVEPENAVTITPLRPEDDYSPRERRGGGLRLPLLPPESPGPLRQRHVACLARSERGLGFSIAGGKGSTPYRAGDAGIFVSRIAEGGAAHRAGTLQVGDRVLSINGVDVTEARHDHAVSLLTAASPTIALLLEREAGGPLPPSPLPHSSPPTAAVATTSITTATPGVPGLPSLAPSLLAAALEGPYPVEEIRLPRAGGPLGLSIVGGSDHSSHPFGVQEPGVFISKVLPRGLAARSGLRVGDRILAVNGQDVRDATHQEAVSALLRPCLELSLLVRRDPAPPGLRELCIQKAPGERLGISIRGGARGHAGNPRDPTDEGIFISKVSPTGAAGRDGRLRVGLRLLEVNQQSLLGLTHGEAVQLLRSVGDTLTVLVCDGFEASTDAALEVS
# [4] = molecular target: GST-Magi3 PDZ domain 1 (human) (UniProt Q5TCQ9); assay: as above
# GST-Magi3 PDZ domain 1 (human), sequence (Q5TCQ9 other isoform, or with tags, fused parts or gaps limits assumed, form in doubt): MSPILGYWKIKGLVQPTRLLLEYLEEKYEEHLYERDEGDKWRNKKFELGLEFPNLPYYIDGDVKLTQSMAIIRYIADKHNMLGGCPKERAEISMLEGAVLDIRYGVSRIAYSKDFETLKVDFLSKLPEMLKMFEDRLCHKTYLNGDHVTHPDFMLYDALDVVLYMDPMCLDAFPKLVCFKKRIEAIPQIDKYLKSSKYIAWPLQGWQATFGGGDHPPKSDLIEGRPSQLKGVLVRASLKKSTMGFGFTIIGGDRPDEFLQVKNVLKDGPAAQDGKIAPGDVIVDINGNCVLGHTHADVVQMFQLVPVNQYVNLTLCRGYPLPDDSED
# [5] = molecular target: GST-VARTUL PDZ domain (number not stated) (human) (UniProt Q14160); assay: Matrix/G assay ELISA, E6 peptide titrated on GST-PDZ
# [6] = molecular target: GST-Magi3 PDZ domain 1 (human) (UniProt Q5TCQ9); assay: as above
# [7] = molecular target: GST-EBP50 PDZ domain 2, clone #168.2 (human); assay: G assay ELISA, 10 uM biotin peptide on anti-GST-captured GST-PDZ
# [8] = molecular target: GST-PIST PDZ domain 1 (human); assay: as above
# [9] = molecular target: GST-KIAA1526 PDZ domain 1, clone #119.1 (human); assay: as above
# [10] = molecular target: GST-KIAA1719 PDZ domain 5 (human); assay: as above
# [11] = molecular target: GST-HEMBA 1003117 PDZ domain 1, clone #226.2 (human); assay: as above
# [12] = molecular target: GST-PAR3 PDZ domain 3, clone #278.1 (human); assay: as above
# [13] = molecular target: GST-EBP50 PDZ domain 1, clone #341.1 (human); assay: as above
# [14] = molecular target: GST-PTPL1 PDZ domain 2 (human); assay: as above
# [15] = molecular target: GST-Magi2 PDZ domain 3 (human) (UniProt Q86UL8); assay: as above
# GST-Magi2 PDZ domain 3 (human), sequence (Q86UL8 other isoform, or with tags, fused parts or gaps limits assumed, form in doubt): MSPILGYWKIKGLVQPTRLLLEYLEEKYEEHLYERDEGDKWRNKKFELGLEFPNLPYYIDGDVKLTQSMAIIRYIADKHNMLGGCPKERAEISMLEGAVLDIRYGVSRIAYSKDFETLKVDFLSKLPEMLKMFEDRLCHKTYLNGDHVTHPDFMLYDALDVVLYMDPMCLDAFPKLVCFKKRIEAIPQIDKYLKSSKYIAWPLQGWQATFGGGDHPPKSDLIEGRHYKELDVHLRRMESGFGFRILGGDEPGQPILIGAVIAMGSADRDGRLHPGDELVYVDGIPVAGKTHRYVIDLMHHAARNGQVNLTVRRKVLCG
# [16] = molecular target: GST-Densin PDZ domain 1 (human); assay: as above
# [17] = molecular target: GST-DLG-6 PDZ domain 1, clone #333.1 (human) (UniProt Q96JB8); assay: as above
# GST-DLG-6 PDZ domain 1, clone #333.1 (human), sequence (Q96JB8 other isoform, or with tags, fused parts or gaps): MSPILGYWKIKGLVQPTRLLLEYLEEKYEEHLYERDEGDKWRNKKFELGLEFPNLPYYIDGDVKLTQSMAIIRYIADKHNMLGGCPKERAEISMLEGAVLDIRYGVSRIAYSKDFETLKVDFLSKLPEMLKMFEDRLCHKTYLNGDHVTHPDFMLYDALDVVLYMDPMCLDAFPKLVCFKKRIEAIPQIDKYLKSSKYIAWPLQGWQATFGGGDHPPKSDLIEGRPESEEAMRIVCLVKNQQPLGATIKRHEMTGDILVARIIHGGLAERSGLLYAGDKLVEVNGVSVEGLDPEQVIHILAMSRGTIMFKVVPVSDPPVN
# [18] = molecular target: GST-MAGI 1 PDZ domain 5 (human); assay: as above
# [19] = molecular target: GST-MINT1 PDZ domains 1, 2 (human) (UniProt Q02410); assay: as above
# GST-MINT1 PDZ domains 1, 2 (human), sequence (Q02410 other isoform, or with tags, fused parts or gaps limits assumed): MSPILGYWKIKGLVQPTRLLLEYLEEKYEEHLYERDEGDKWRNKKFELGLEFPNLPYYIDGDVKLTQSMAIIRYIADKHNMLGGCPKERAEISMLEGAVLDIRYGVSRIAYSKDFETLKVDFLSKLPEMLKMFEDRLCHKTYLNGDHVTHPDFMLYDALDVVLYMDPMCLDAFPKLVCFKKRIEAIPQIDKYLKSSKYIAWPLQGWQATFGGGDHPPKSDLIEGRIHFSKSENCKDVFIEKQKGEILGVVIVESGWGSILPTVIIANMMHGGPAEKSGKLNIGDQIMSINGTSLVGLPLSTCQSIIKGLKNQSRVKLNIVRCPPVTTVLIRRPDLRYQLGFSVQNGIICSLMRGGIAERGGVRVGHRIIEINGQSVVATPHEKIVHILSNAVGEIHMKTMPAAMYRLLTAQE
substance,measurement,setting,value
GST-PDZK1 PDZ domain 3 fusion protein,Ave OD,[1],0.5 A450 nm
same,OD S/N,[2],1.92
GST-Magi2 PDZ domain 5 fusion protein (from UniProt Q86UL8 920-1010),Ave OD,[1],0.651 A450 nm
same,OD S/N,[2],3.93
GST-NeDLG PDZ domain 1 fusion protein,Ave OD,[1],0.516 A450 nm
same,OD S/N,[2],1.98
"HPV16 E6 C-terminal PDZ ligand peptide (20 mer, biotinylated) (from UniProt P03126 139-158)",EC50,[3],940 nM
same,EC50,[4],310 nM
same,EC50,[5],940 nM
same,EC50,[6],310 nM
same,Ave OD,[7],0.345 A450 nm
same,OD S/N (ratio to GST only well),[7],1.99
same,Ave OD,[8],0.386 A450 nm
same,OD S/N (ratio to GST only well),[8],1.96
same,Ave OD,[9],0.425 A450 nm
same,OD S/N (ratio to GST only well),[9],1.38
same,Ave OD,[10],0.39 A450 nm
same,OD S/N (ratio to GST only well),[10],1.81
same,Ave OD,[11],0.36 A450 nm
same,OD S/N (ratio to GST only well),[11],1.66
same,Ave OD,[12],0.352 A450 nm
same,OD S/N (ratio to GST only well),[12],1.8
same,Ave OD,[13],0.43 A450 nm
same,OD S/N (ratio to GST only well),[13],1.65
same,Ave OD,[14],0.348 A450 nm
same,OD S/N (ratio to GST only well),[14],1.8
same,Ave OD,[15],0.416 A450 nm and 0.359 A450 nm
same,OD S/N (ratio to GST only well),[15],1.98 and 1.65
same,Ave OD,[16],0.42 A450 nm and 0.35 A450 nm
same,OD S/N (ratio to GST only well),[16],1.96 and 1.82
same,Ave OD,[17],0.349 A450 nm
same,OD S/N (ratio to GST only well),[17],2.04
same,Ave OD,[18],0.432 A450 nm
same,OD S/N (ratio to GST only well),[18],1.77
same,Ave OD,[19],0.365 A450 nm
same,OD S/N (ratio to GST only well),[19],1.42
GST-INADL PDZ domain 3 fusion protein,Ave OD,[1],0.485 A450 nm
same,OD S/N,[2],1.86
